Laboratory results as given in the Human Domainome abundance scans (Beltran et al. 2025).

B1: Chromodomain-helicase-DNA-binding protein 4, residues 365 to 417; numbered along this chain, Q14839 (parent)
chain: YETDHQDYCEVCQQGGEIILCDTCPRAYHMVCLDPDMEKAPEGKWSCPHCEKE

Variants of: B1
Test: abundance fitness (aPCA) (normalised: wild type 0, dead -1); higher = more abundant; growth selection in yeast, the domain comes from the species named
Conditions: Homo sapiens

Abundance fitness: each site, then its substitutions
G16: V -0.341; F -0.469; P -0.347; N 0.144; Y -0.262; D 0.29; I -0.08; K 0.026; E 0.12; S 0.069; C -0.32; Q 0.036; M -0.095; T 0.242; R 0.009; L -0.016; A -0.114; H -0.12
Y8: W -0.107
Y28: H 0.023; E -0.649; D -0.526; L -0.073; N -0.403; C -0.582; F 0.012; K -0.267; M 0.048; P -0.704; I -0.295
D22: L -0.34; S -0.272; T 0.089; V -0.065; P -0.721; Q 0.083; F -0.129; W -0.219; N -0.101; A 0.056; I 0.03; G -0.021; H -0.528; Y -0.42
E10: C -0.26; S 0.035; P -0.157; I 0.204; Q -0.358; A -0.155; F -0.015; N -0.182; K -0.063; H -0.383; T -0.093; R -0.022; Y 0.133; L 0; W 0.015; V -0.197
C24: R -0.775; N -0.401; I -1.18; T -0.768; E -0.822; F -0.882; D -0.647; Y -1.31; W -0.901; G -0.695; A -1.1; Q -1.15; V -0.99; M -0.751; P -0.652; S -0.681; L -1.19
R26: I -0.014; D -0.249; A -0.137; Y -0.413; K -0.065; M 0.183; G -0.112; S -0.134; L -0.231; H -0.273; F -0.288; C -0.462; T -0.191; E -0.356; P -0.348; W -0.791; V -0.226
T23: F -0.099; Y -0.296; C -0.257; V -0.231; S 0.033; Q -0.107; R -0.363; I -0.236; K -0.219; W -0.327; A -0.459; L -0.107; D -0.052; M -0.297; H 0.312; G -0.189; P -0.922; N -0.201
P25: E 0.198; S 0.068; M -0.194; F 0.079; R -0.054; A -0.243; N 0.185; H -0.485; Q -0.058; V -0.241; I -0.057; K -0.274; T -0.192; C 0.034; Y -0.135; L -0.044; W -0.27; D -0.276; G -0.044
G15: K -0.033; I -0.664; L -0.052; M -0.028; W -0.216; Q -0.046; N -0.328; E -0.162; Y -0.571; T -0.003; D 0.176; C -0.524; R 0.075; S -0.013; A -0.028; P -0.136; F -0.178
I19: R 0.022; W -0.199; S -0.143; L -0.145; A 0.085; Q -0.124; N -0.097; E -0.07; K 0.127; P -0.849; G -0.137; C -0.25; T -0.101; Y -0.629; M 0.277; F -0.404; D -0.154
E17: A -0.149; C -0.308; S -0.033; H -0.11; W -0.412; L -0.322; D -0.109; M -0.149; Y -0.055; R -0.115; T -0.033; F -0.222; V -0.076; I -0.199; G -0.171; Q -0.135; N 0.115; K -0.153
C21: S -0.889; T -0.467; D -0.657; E -0.893; R -0.743; W -0.738; A -0.882; L -1.06; Y -0.765; F -1.11; M -0.911; N -0.983; V -0.877; K -0.734; P -1.11; Q -0.468; I -0.802
L20: F -0.096; Y -0.179; P 0.149; H 0.143; S -0.013; T 0.036; V -0.028; Q -0.022; M -0.011; C -0.045; N -0.083; A 0.08; E 0.01; W -0.146; D 0.178; R 0.113; I 0.023
C9: V -1.01; S -0.676; D -0.777; M -0.562; Q -0.845; F -1.09; Y -1.02; G -0.825; L -0.717; P -0.712; E -0.943; A -0.929; I -0.868; R -0.678; H -0.739; T -0.791
I18: A -0.123; V -0.161; M 0.022; G -0.042; R -0.06; Y -0.231; D -0.058; C -0.216; K -0.305; H -0.408; S -0.081; Q -0.14; E 0.046; W -0.218; F 0.158; T 0.221; P -0.369
C12: T -0.46; Q -0.49; A -0.952; D -0.944; F -0.529; W -0.948; M -0.643; I -0.342; E -0.683; V -0.887; Y -1.07; H -0.948; G -0.799; K -0.775; R -0.87; S -0.977; N -0.605; L -0.962
V11: L 0.134; W -0.019; M 0.223; C 0.063; K 0.127; Q -0.268; I -0.064; A -0.098; P -0.257; F 0.262; S -0.085; T 0.195; H 0.155; G 0.129; Y 0.008; N 0.223
Q14: W -0.342; N -0.362; S -0.239; I -0.084; L -0.347; P -0.826; C -0.337; E 0.223; F 0.06; K 0.002; Y -0.338; G -0.013; H -0.23; A -0.307; R 0.162
A27: F -0.172; I -0.421; T -0.094; G -0.162; H -0.276; N -0.165; Y 0.086; V -0.077; E -0.672; S -0.088; L -0.15; P -0.262; D -0.545; C -0.02; K -0.238; W -0.257; Q -0.424
Q13: K -0.474; H -0.135; D 0.12; N 0.255; T -0.015; M 0.156; E -0.036; C -0.045; L -0.091; Y -0.117; I -0.208; A 0.206; F -0.063; V -0.018; W -0.255; P -0.702; S 0.008; G 0.037
